Results from patent US20240277818A1, “COMPOSITION INCLUDING A METAL-ORGANIC FRAMEWORK (MOF) NANOPARTICLE FOR ORAL PROTEIN ADMINISTRATION” (UNIVERSITY OF NORTH TEXAS, priority 2023, published 2024).

Tests used:
[1] = In vivo pharmacokinetics, serum INS (UiO-68-NH2 nanosystems)
Protocol: The rats and mice fasted overnight before experiments and then administered different samples by gavage. The […] effect was tested following the oral administration of I@U and T@I@U (20 IU/kg). As control groups, one group of rats were administered free INS (20 IU/kg) by oral gavage, and the other group was administered free INS (5 IU/kg) by s.c. injection. Blood samples were collected from the orbital venous plexus and analyzed using a blood glucose meter, expressed as the percentage of baseline serum glucose level (0 h) at different periods. The INS contents in blood samples were measured using the bovine INS ELISA kit. The 0 h INS content was subtracted from the INS measured at different time intervals and plotted.
Hypoglycemic effects (FIG. 7A, B) and insulin levels in the serum of SD rats (FIG. 7C) were tested after administration of equal amounts of insulin I @ U and T @ I @ U (20IU/kg) to diabetic mice (BALB/C mice) and rats (SD rats) by gavage. As a control group, one group of rats was administered insulin (20 IU/kg) by gavage, and the other group was administered insulin (5 IU/kg) by subcutaneous injection.

trypsin = assay: Protection of INS from trypsin degradation by UiO-68-NH2 nanosystems; conditions: trypsin-containing HBSS buffer, 37 °C, 1 h
Protocol: To determine whether UiO-68-NH2 could protect INS from digestive enzymes, the NPs were incubated in simulated intestinal fluid containing trypsin (1 mg/mL) at 37° C. Aliquots (100 μL) at specific time intervals were taken out and added 200 μL of DMSO containing 0.1% trifluoroacetic acid to stop the enzymatic reaction. The concentration of INS was determined with the Elisa kit in all the following experiments.
Aliquots (100 μL) were removed at specified time intervals, 200 μL of DMSO containing 0.1% trifluoroacetic acid was added to stop the enzymatic reaction, and the concentration of insulin in the solution was determined using an Elisa kit.

blood glucose levels = assay: In vivo pharmacodynamics of PCN-777 nanosystems in rats; design: species or system SD rats; conditions: diabetic rats
Protocol: Animal models and diabetes induction were undertaken. Male Sprague Dawley rats (180-200 g) and BALB/c mice (18-20 g) were provided by Beijing Vital River Laboratory Animal Technology Co. Ltd. New Zealand rabbits (2-2.5 kg) were provided in all the animal studies were conducted following the Chinese Regulations for the Administration of Affairs Concerning Experimental Animals and performed in compliance with the guidelines of the Institutional Animal Care and Use Committee (IACUC) of Wuhan University. To establish an alloxan-induced diabetic rat model, healthy rats were intravenously injected with alloxan 50 mg/kg once and the blood glucose changes were monitored daily to confirm their diabetic status. After seven days, the blood glucose was stable at 20 mmol/L, proving the diabetes model was successfully established. The difference between the establishment of diabetes models of mice and rabbits was that the dosage of alloxan in mice and rabbits is 100 mg/kg. […] INS bioactivity in vivo was undertaken. In vivo studies were performed in alloxan-induced diabetic rats (n=five per group) and rabbits (n=three per group). […] At predetermined time intervals, blood samples were collected for glucose testing using a blood glucose meter. Serum insulin level was determined using a bovine INS ELISA kit. […]

[2] = system: Caco-2 cell monolayers with high or low expression of PCFT; assay: Transepithelial transport, TEER and INS degradation, PCN-777 nanosystems; conditions: 48 h of incubation
Protocol: The transepithelial transport studies were conducted following previously reported procedures. In short, the Caco-2 cells were cultured in transwell inserts for 21 days till the TEER values reached above 300Ω×cm^2. Caco-2 cell monolayers with high or low expression of PCFT were co-incubated with Free INS and I@P and I@F-P on the apical side for 48 hours. An amount of 100 μL of the sample was taken out from the basolateral side at different time intervals and 100 μL of DMEM was always supplemented to maintain a consistent volume. After 48 hours of incubation, samples of the apical and basolateral layers were collected respectively, and the cell monolayer was lysed with RIPA lysate and collected. The INS contents in each sample were then tested utilizing the bovine insulin ELISA kit. The degradation rate of INS in different preparations were calculated according to the following equation:
where m(total) is the total mass of INS added, m(apical) is the mass of INS in the apical layer, m(basolateral) is the mass of INS in the basolateral layer, and m(inside) is the mass of INS in the cell monolayer.

blood glucose level = assay: In vivo pharmacodynamics, blood glucose after T@I@U, I@U and free INS; design: species or system alloxan-induced diabetic rats and mice
Protocol: In vivo INS bioactivity studies were performed in alloxan-induced diabetic animals (n=six per group). The rats and mice were induced to type I diabetes by alloxan injections. The animals were regarded as diabetic if their fasting blood glucose levels were higher than 11 mmol/L in one week after injection.

Caco-2 cell monolayers = assay: Lysosomal degradation of INS in cell monolayers, UiO-68-NH2 nanosystems; format: cell-based, human; conditions: 2 h incubation
[3] = In vivo fluorescence imaging and biodistribution of RITC-INS formulations (UiO-68-NH2); design: species or system mice; rats
Protocol: RITC-INS, RITC-INS@U, T@RITC-INS@U were orally administered to the overnight fasted mice for in vivo fluorescence imaging. The fluorescence images of mice were captured at different time points using the SI Imaging Amix imaging system to evaluate the metabolic process of INS preparations. Another group of mice was sacrificed after 4 h of treatment. The images of organs and intestines were also obtained. Different formulations were orally administered to the overnight fasted rats for 4 h. Then the rats were sacrificed, and the intestine loops were excised and frozen in Tissue-Tek OCT with liquid nitrogen. Cross intestine sections were obtained using a freezing microtome blade and then stained the intestine sections with DAPI for 10 min and visualized by CLSM.

[4] = In vivo fluorescence imaging and biodistribution of PCN-777 formulations; design: species or system mice; rats; conditions: 12 h after administration
Text: In vivo fluorescence imaging is undertaken. RITC-INS, RITC-INS@P, and R-I@F-P were orally administered to the overnight fasted diabetic mice or normal mice. The SI Imaging Amix imaging system was used to assess the distribution and metabolism of INS preparations in mice with different intestinal expressions of PCFT at different time points. Another group of diabetic mice or normal mice was sacrificed twelve hours after RITC-INS, RITC-INS@P, and R-I@F-P treatment, and the organs and intestines were collected and observed. The same procedure was done to diabetic rats. The intestine loops of the RITC-INS, RITC-INS@P, and R-I@F-P medicated rats were collected by the same procedure and frozen in Tissue-Tek OCT with liquid nitrogen. Intestinal sections were obtained using a cryostat and visualized by CLSM after staining with DAPI for 10 min.

[5] = in vivo; cited from earlier work

Substance | relative (oral) bioavailability ([1]; oral 20 IU/kg versus s.c. free INS 5 IU/kg) | time of maximum serum INS level ([1]; subcutaneous 5 IU/kg) | time of return of serum INS to minimum ([1]; subcutaneous 5 IU/kg) | active INS remaining (trypsin) | glucose response (blood glucose levels; oral administration) | time to restoration of high blood glucose levels (blood glucose levels; subcutaneous injection) | degradation of ingested INS [2] | blood glucose response (blood glucose level; oral gavage, 20 IU/kg) | time after which hypoglycemic effect wears off (blood glucose level; subcutaneous 5 IU/kg) | blood glucose level, % of the initial level (blood glucose level; subcutaneous 5 IU/kg, at 2 h) | ingested INS degraded (Caco-2 cell monolayers) | INS fluorescence in major organs / liver ([3]; 4 h after oral administration) | INS fluorescence in sectioned intestine epithelial tissue ([3]; confocal imaging, 2 h after administration) | fluorescence in intestine epithelial tissue sections [4] | duration of action [5]
insulin [free INS] | 0.7% | ≤ 1 h | 4 h | almost completely degraded | fail to generate a significant glucose response | ≤ 4 h | almost completely degrades | fails to reduce the blood glucose level | 4 h | about 28% | about 50% | does not show any fluorescence signal | barely any fluorescence | only weak fluorescence | –
regular insulin: regular insulin (INS) as used by injection in diabetics | – | – | – | – | – | – | – | – | – | – | – | – | – | – | 4 to 8 h
